According to patent publication US20140005098A1 (INSERM INSTITUT NATIONAL DE LA SANT ET DE LA RECHERCHE M …, published 2014):

Target: T1, IGF-II (UniProt P01344 25-91)
T1 construct: also called biotinylated IGF-II (tracer form)
Test: solid-phase displacement of biotinylated IGF-II tracer (Example 5, to which the sentence points); reference: unfused mini-IGFBP-3
Experimental: A solid-phase assay was used to study the binding affinity of mini-IGFBP-3-Fc for IGF-II. In this assay, two binding proteins (mini-IGFBP-3 and mini-IGFBP-3-Fc) were immobilized to a support. They were incubated with the biotinylated IGF-II tracer, and then increasing concentrations of IGF-II were added.

T1 sequence (P01344 25-91 limits assumed): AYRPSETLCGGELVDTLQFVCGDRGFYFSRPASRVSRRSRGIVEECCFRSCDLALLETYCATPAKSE

- fold apparent affinity (IC50) against IGFBP-3 derivatives not fused to IgG1 Fc: 7 fold
B1: mini-IGFBP-3-Fc (mini-IGFBP-3-FcIgG1 fusion protein, immunoadhesin) (Fc fusion, human)
chain: GASSAGLGPVVRCEPCDARALAQCAPPPAVCAELVREPGCGCCLTCALSEGQPCGIYTERCGSGLRCQPSPDEARPLQALLDGRGLCVNASAVSGGGSGGSGGSGGSGGETEYGPCRREMEDTLNHLKFLNVLSPRGVHIPNCDKKGFYKKKQCRPSKGRKRGFCWCVDKYGQPLPGYTTKGKEDVHCYSMQSK
notes: range 1-94;range 180-264; also called mini-IGFBP-3 immunoadhesin; not shown: Fc fragment of human IgG1 from the pYM-Fc-IgG1 vector
